{
  "source": "patent US9765332B2",
  "about": "“Oligonucleotides and methods for inhibiting or reducing bacterial biofilms” (INSERM (INSTITUT NATIONAL DE LA SANTE ET DE LA RECHERCHE …)",
  "molecules": {"B1": {"name": "csgD mRNA215 (ssRNA)", "RNA": "GAUGUAAUCCAUUAGUUUUAUAUUUUACCCAUUUAGGGCUGAUUUAUUACUACACACAGCAGUGCAACAUCUGUCAGUACUUCUGGUGCUUCUAUUUUAGAGGCAGCUGUCAGGUGUGCGAUCAAUAAAAAAAGCGGGGUUUCAUCAUGUUUAAUGAAGUCCAUAGUAUUCAUGGUCAUACAUUAUUGUUGAUCACUAAAUCUUCUUUGCAGGCG"}, "B2": {"name": "Escherichia coli RydC small RNA (nucleic acid, listed as Escherichia coli)", "chain": "CUUCCGAUGUAGACCCGUAUUCUUCGCCUGUACCACGGGUCGGUUUUAGUACAGGCGUUUUCU", "modifications": "expressed or natural sequence", "notes": "trans-encoded 64 nt sRNA of enteric bacteria folding as a pseudoknot; expressed from pUC18-rydC or transcribed in vitro"}, "B3": {"name": "Escherichia coli RydC H2 (nucleic acid)", "chain": "CUUCCGAUGUACUGGGCAAUUCUUCGCCUGUACCACGGGUCGGUUUUAGUACAGGCGUUUUCUU", "modifications": "chemistry not given here"}, "B4": {"name": "Escherichia coli RydC H1 (nucleic acid)", "chain": "CUUCCGAUGUAGACCCGUAUUCUUCGCCUGUACCUGCCCAGGGUUUUAGUACAGGCGUUUUCUU", "modifications": "chemistry not given here"}, "B5": {"name": "Escherichia coli RydC H3 (nucleic acid)", "chain": "B3 chain with A35U, C36G, G37C, G38C, G39C, U40A, C41G", "modifications": "chemistry not given here"}},
  "key": {"E. coli [1]": {"test_system": "E. coli", "experiment": "E. coli biofilm formation in the presence of PNAs", "format": "cell-based", "settings": "20 μM of PNAs", "experimental": "The inventors used peptide nucleic acids (PNAs) that hybridize to the CsgD mRNA sequence ranging from nucleic acid at position 128 to nucleic acid at position 151 in SEQ ID NO: 9. In the presence of 20 μM of PNAs corresponding to RydC 1-2tot sequence (SEQ ID NO: 10), E. coli biofilm formation was reduced about 50%."}, "E. coli [2]": {"test_system": "E. coli", "experiment": "E. coli growth in the presence of PNAs", "format": "cell-based"}, "csgD mRNA [3]": {"test_system": "csgD mRNA", "experiment": "Native gel retardation assays", "format": "binding, Escherichia coli", "description": "To generate the various csgD mRNA fragments as well as the sRNA's RydC, DNA templates containing a T7 promoter sequence were generated by PCR using the appropriate primers (Table S2) followed by in vitro transcription using a MEGAscript kit (Ambion) per the manufacturer's protocol. Transcription products were then electrophoresed onto a 6% PAGE containing 8M urea, excised from the gel, then […]. When necessary, purified RNA was dephosphorylated using CIP (New England Biolabs), 5′end-labelled with ATP γ-^32P (PerkinElmer) and T4 polynucleotide kinase (NE Biolabs), then treated with gel purification, passive elution, and ethanol precipitation.\n(§1) After denaturation followed by renaturation at room temperature, annealing mixes containing 0.2 pmol csgD mRNA and 1 pmol of labelled primer were incubated for 15 min with or without various concentrations of RydC or Hfq. fMet-tRNA^fMet was then added for 5 min. Reverse transcription was started by adding 2 μL of AMV RT (NE Biolabs) and dNTPs for 15 min, then stopped by adding 10 μL of Buffer II (Ambion). The cDNAs and sequencing reactions were run on polyacrylamide gels, and signals detected using a PhosphorImager. Gel retardation assays are performed as previously described (4). 0.5 pmol of labelled RydC were incubated for 10 min at 37° C. with various concentrations (0-500 pmols) of unlabelled csgD mRNA215, csgD mRNAΔ5′UTR, or csgD mRNA100 in 1×TMN buffer (20 mM Tris-acetate pH 7.6, 100 mM sodium acetate, and 5 mM magnesium acetate). Samples were loaded onto a native 5% acrylamide gel and separated with 0.5×TBE at 4° C. Gels are dried and visualized (PhosphorImager)."}, "csgD mRNA215": {"test_system": "csgD mRNA215", "experiment": "Ribosome toeprint assays", "format": "biochemical, Escherichia coli", "settings": "RydC without Hfq (elevated amounts); Hfq without RydC (low amounts)", "experimental": "as §1"}, "csgD mRNA [4]": {"test_system": "csgD mRNA", "experiment": "In vitro translation assays (PURESYSTEM)", "format": "biochemical, Escherichia coli", "settings": "csgD mRNA503; for effect of adding Hfq on the translation regulation by the RydC mutant: 2-fold molar excess of Hfq", "experimental": "In vitro translation of CsgD mRNA503 (2.5 pmols) using [^35S]-methionine was carried out with a PURESYSTEM (Cosmo Bio) following the manufacturer's instructions and as described previously (13). After RNA denaturation for 2 min at 85° C., chilling 2 min on ice, then renaturation for 5 min at 37° C. in TMN 1× buffer, a pre-complex between RydC and 10 pmol of Hfq was performed during 10 minutes at 37° C. To form the complex with the csgD mRNA, we again incubated for 10 min at 37° C. then translation assays were initiated by adding [^35S]-methionine and the PURESYSTEM classic II. Each reaction was denatured in a 1× Laemmli buffer at 95° C. for 5 min, loaded onto a 16% Tris-glycine gel, and visualized on a PhosphorImager."}, "Hfq": {"biological_target": "Hfq (Escherichia coli, UniProt P0A6X3 P0A6X3:2-102)", "sequence (P0A6X3 2-102, one chain of several)": "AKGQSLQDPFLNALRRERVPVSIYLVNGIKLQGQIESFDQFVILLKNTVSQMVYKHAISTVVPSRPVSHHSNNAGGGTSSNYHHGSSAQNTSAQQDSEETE", "experiment": "EMSA; Hfq binds csgD mRNA215 in absence of RydC; no Kd given", "settings": "tags: His tag implied by Ni2+ column purification, expressed from pTE607 in BL21(DE3); chain copies: 6; nine helices H1-H9"}, "Escherichia coli [5]": {"test_system": "Escherichia coli", "experiment": "Microtiter dish biofilm assay (crystal violet), RydC expression from pUC18-rydC", "format": "cell-based", "settings": "increased RydC expression (pUC18-rydC) vs isogenic strain; 48 hours incubation at 28° C."}, "[6]": {"test_system": "Salmonella enterica (bongori)", "experiment": "Microtiter dish biofilm assay (crystal violet), RydC expression from pUC18-rydC", "format": "cell-based", "settings": "increased RydC expression (pUC18-rydC) vs isogenic strain; 48 hours incubation at 28° C."}, "Escherichia coli [7]": {"test_system": "Escherichia coli", "experiment": "Curli formation on Congo red plates", "format": "cell-based", "settings": "stimulated RydC expression, 48 hours at 28° C."}, "[8]": {"test_system": "Salmonella enterica (bongori)", "experiment": "Curli formation on Congo red plates", "format": "cell-based", "settings": "stimulated RydC expression, 48 hours at 28° C."}, "CsgA protein": {"test_system": "CsgA protein", "settings": "stimulated RydC expression; YESCA plates, 0-48 hours", "experimental": "E. coli K-12 MG1655Z1, S. sonnei and S. enterica strains and their derivatives were used (Table S1). RydC gene disruption and overexpression in E. coli cells were done as previously described (4). The biofilm assays were performed in 96-well polystyrene plates, as previously described (18). E. coli, S. enterica, and S. sonnei cells were grown aerobically under static conditions at 28° C. in half-diluted M9 media supplemented with a 0.4% glucose carbon source. After 48 h growth, planktonic cells were discarded and kept for growth evaluation at OD600 nm. Each well was washed twice with PBS and put into a ‘swimming pool’, pooled with the initial supernatant. Biofilm was developed in plates then dyed with crystal violet for 15 min at room temperature. The biofilm was recovered through application of an 80% absolute ethanol and 20% acetone solution and by pipetting up and down. After 2 further washes in ‘ethanol/acetone’, the number of surface-attached bacteria was estimated from the optical density at 590 nm and divided by the evaluation of growth at 600 nm. Curli expression was monitored for 48 h at 28° C. on Congo red plates (1% Casamino acids, 0.1% yeast extract, 20 μg ml^−1 Congo red and 10 μg ml^−1 Coomassie Brilliant Blue G). […]"}, "CsgB protein": {"test_system": "CsgB protein", "experiment": "Western blot with anti-CsgB antibodies during curli formation", "format": "cell-based, Escherichia coli", "settings": "promoted RydC expression; after 48 h", "description": "(§2) Membranes were blocked in TBS containing 5% milk."}, "CsgD protein": {"test_system": "CsgD protein", "experiment": "Western blot with anti-CsgD antibodies during curli formation", "format": "cell-based, Escherichia coli", "settings": "induction of RydC expression; all times during curli synthesis", "description": "as §2"}, "csgBA and csgA mRNA": {"test_system": "csgBA and csgA mRNA", "experiment": "Northern blot of csgA and csgBA mRNAs during curli formation", "format": "cell-based, Escherichia coli", "settings": "high levels of RydC; after 10 h incubation"}, "csgD mRNA [9]": {"test_system": "csgD mRNA", "experiment": "Northern blot of csgD mRNA during curli formation", "format": "cell-based, Escherichia coli", "settings": "induced RydC expression; throughout curli synthesis"}},
  "note": "Changes are numbered by the printed parent chain. Entries after “also recorded” stand apart in the source; their conditions may differ.",
  "data": [
    {"molecule": "AACATGATGAAACCCCGC (all peptide nucleic acid (PNA)) [RydC 1-2tot]", "values": [
      {"measurement": "reduction of E. coli biofilm formation", "setting": "E. coli [1]", "value": "about 50%"},
      {"measurement": "effect on bacterial growth", "setting": "E. coli [2]", "value": "reducing E. coli growth"}
    ]},
    {"molecule": "Hfq: purified E. coli Hfq RNA-binding protein (RNA chaperone)", "values": [
      {"measurement": "interaction of Hfq with csgD mRNA215", "setting": "csgD mRNA [3]; absence of RydC", "value": "interacts"},
      {"measurement": "ribosome loading / translation initiation on csgD mRNA215 (toeprint)", "setting": "csgD mRNA215", "value": "prevent csgD mRNA translation initiation"},
      {"measurement": "CsgD translation remaining (down to)", "setting": "csgD mRNA [4]; relative to translation without RydC and Hfq", "value": 40, "unit": "%"}
    ]},
    {"molecule": "B1", "values": [
      {"measurement": "binding result", "setting": "Hfq", "value": "binds"}
    ]},
    {"molecule": "B2", "values": [
      {"measurement": "reduction of biofilm formation", "setting": "Escherichia coli [5]", "value": "about one-third"},
      {"measurement": "reduction of biofilm formation", "setting": "[6]", "value": "one-half"},
      {"measurement": "curli formation", "setting": "Escherichia coli [7]", "value": "lowered curli formation"},
      {"measurement": "curli formation", "setting": "[8]", "value": "lowered curli formation"},
      {"measurement": "reduction of the quantity of CsgA structural protein compared to wt", "setting": "CsgA protein", "value": "up to 2.5 times"},
      {"measurement": "reduction of CsgB nucleator protein compared to isogenic strain", "setting": "CsgB protein", "value": "about two-fold"},
      {"measurement": "reduction of CsgD protein compared to isogenic strain", "setting": "CsgD protein", "value": "up to five-fold"},
      {"measurement": "decrease of steady state levels of csgBA and csgA mRNA transcripts", "setting": "csgBA and csgA mRNA", "value": "half"},
      {"measurement": "csgD mRNA steady state levels compared to isogenic strain", "setting": "csgD mRNA [9]", "value": "half"},
      {"measurement": "complex formation with csgD mRNA100", "setting": "csgD mRNA [3]; 31 nts of 5′UTR including TIS plus 69 nts coding sequence", "value": "duplex was detected; also recorded: lower than that with mRNA215"},
      {"measurement": "ternary complex formation RydC-Hfq-csgD mRNA215", "setting": "csgD mRNA [3]; Hfq 1:1 molar ratio to RydC, one-to-one molar ratio with csgD mRNA215", "value": "nearly all of the RydC is in the complex"},
      {"measurement": "molar excess of csgD mRNA215 versus RydC needed for about half of RydC in complex", "setting": "csgD mRNA [3]; absence of Hfq", "value": "1000 -fold molar excess"},
      {"measurement": "complex formation with csgD mRNA115", "setting": "csgD mRNA [3]; first 115 nts of the csgD mRNA 5′-end, up to 250-fold excess", "value": "unable to interact; also recorded: did not interact"},
      {"measurement": "complex formation with csgD mRNAΔ5′UTR", "setting": "csgD mRNA [3]; mRNA lacking the 5′-UTR, starting at G+3", "value": "does not interact"},
      {"measurement": "complex formation with csgD mRNA215", "setting": "csgD mRNA [3]; no Hfq", "value": "duplex was detected"},
      {"measurement": "ribosome loading / translation initiation on csgD mRNA215 (toeprint)", "setting": "csgD mRNA215", "value": "reduced ribosome loading onto the csgD mRNA in a concentration-dependent manner"},
      {"measurement": "reduction of CsgD translation", "setting": "csgD mRNA [4]; without Hfq", "value": 20, "unit": "%"}
    ]},
    {"molecule": "B3", "values": [
      {"measurement": "effect of adding Hfq on the translation regulation by the RydC mutant", "setting": "csgD mRNA [4]", "value": "not beneficial"}
    ]},
    {"molecule": "B4", "values": [
      {"measurement": "effect on CsgD translation", "setting": "csgD mRNA [4]; absence of Hfq", "value": "increased efficacy and translation blockage"}
    ]},
    {"molecule": "B5", "values": [
      {"measurement": "activity for reducing CsgD translation relative to RydCH1", "setting": "csgD mRNA [4]", "value": "ten-fold"},
      {"measurement": "activity in reducing csgD mRNA translation relative to RydC", "setting": "csgD mRNA [4]", "value": "only half as active as RydC"},
      {"measurement": "effect of adding Hfq on the translation regulation by the RydC mutant", "setting": "csgD mRNA [4]", "value": "no effect"}
    ]}
  ]
}
